Laboratory results reported in patent US20230357348A1 (AstraZeneca / MedImmune, published 2023).
Starred links: 1 amine or outer side, 2 acyl side, 3 side chain; linkers in the order of their positions; H or OH if unused. Non-standard residues stand in square brackets, D forms with d. Groups on a side chain read outwards from the residue. Primed or numbered codes have the meaning given here. No end group written: not given here. *: point of attachment. PEG12 = NCCOCCOCCOCCOCCOCCOCCOCCOCCOCCOCCOCCOCCC(=O)O; (PEG)2″ = polyethylene glycol 2 linker unit; C18 diacid = O=C(O)CCCCCCCCCCCCCCCCC(=O)*; PEG8 = NCCOCCOCCOCCOCCOCCOCCOCCOCCC(=O)O; Dip = N[C@H](C(=O)O)C(c1ccccc1)c1ccccc1; Heptadecanoyl = CCCCCCCCCCCCCCCCC(=O)*; γGlu = O=C(O)[C@H](CCC(=O)[*:2])N[*:1]; Stearoyl = CCCCCCCCCCCCCCCCCC(=O)*; Palmitoyl = CCCCCCCCCCCCCCCC(=O)*; αMeF = C[C@](N)(Cc1ccccc1)C(=O)O; (PEG)2 = polyethylene glycol 2; PEG4 = NCCOCCOCCOCCOCCC(=O)O; Dodecyl = CCCCCCCCCCCC*; AEEA = NCCOCCOCC(=O)O; Aib = CC(C)(N)C(=O)O

Tests used:
[1] = biological target: human GLP-1 receptor (hGLP-1R) (human, UniProt P43220 24-463); assay: cell-based or functional assay
[2] = biological target: human glucagon receptor (hGCGR) (human, UniProt P47871 26-477); assay: cell-based or functional assay
Sequence of human glucagon receptor (hGCGR) (P47871 26-477): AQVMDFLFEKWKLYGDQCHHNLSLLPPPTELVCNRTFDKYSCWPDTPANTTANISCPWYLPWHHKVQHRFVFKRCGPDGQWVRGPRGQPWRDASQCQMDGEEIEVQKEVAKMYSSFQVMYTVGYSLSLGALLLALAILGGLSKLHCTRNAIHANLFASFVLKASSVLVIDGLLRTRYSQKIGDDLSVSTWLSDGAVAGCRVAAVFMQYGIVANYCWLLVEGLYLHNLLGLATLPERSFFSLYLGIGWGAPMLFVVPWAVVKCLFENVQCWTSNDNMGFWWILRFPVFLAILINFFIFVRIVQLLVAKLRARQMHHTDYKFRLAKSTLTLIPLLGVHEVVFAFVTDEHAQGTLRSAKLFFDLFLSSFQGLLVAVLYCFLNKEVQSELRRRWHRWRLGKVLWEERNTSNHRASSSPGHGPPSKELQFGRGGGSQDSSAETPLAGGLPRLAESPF

For HSQGS[αMeF]TSDVSK[Dip]LDSK([γGlu-γGlu-(PEG)2-(PEG)2-Stearoyl])AAQD[αMeF]VE[Aib]IINT-NH2 [Peptide 59], which “hGLP-1R EC50 (pM)” value [1] is on record?
Its value is 6.18 pM.

And the “hGluc-R EC50 (pM)” value [2]?
Its value is 28.4 pM.

B1: Peptide 72 (peptide)
peptide: H[Aib]QGS[αMeF]TSDVSK[αMeF]LDSK([PEG4-γGlu-γGlu-Palmitoyl])AAQD[αMeF]VE[Aib]LEAGG-NH2
modifications: N-terminus assumed
SMILES: CCCCCCCCCCCCCCCC(=O)N[C@@H](CCC(=O)N[C@@H](CCC(=O)NCCOCCOCCOCCOCCC(=O)NCCCC[C@H](NC(=O)[C@H](CO)NC(=O)[C@H](CC(=O)O)NC(=O)[C@H](CC(C)C)NC(=O)[C@](C)(Cc1ccccc1)NC(=O)[C@H](CCCCN)NC(=O)[C@H](CO)NC(=O)[C@@H](NC(=O)[C@H](CC(=O)O)NC(=O)[C@H](CO)NC(=O)[C@@H](NC(=O)[C@](C)(Cc1ccccc1)NC(=O)[C@H](CO)NC(=O)CNC(=O)[C@H](CCC(N)=O)NC(=O)C(C)(C)NC(=O)[C@@H](N)Cc1c[nH]cn1)[C@@H](C)O)C(C)C)C(=O)N[C@@H](C)C(=O)N[C@@H](C)C(=O)N[C@@H](CCC(N)=O)C(=O)N[C@@H](CC(=O)O)C(=O)N[C@@](C)(Cc1ccccc1)C(=O)N[C@H](C(=O)N[C@@H](CCC(=O)O)C(=O)NC(C)(C)C(=O)N[C@@H](CC(C)C)C(=O)N[C@@H](CCC(=O)O)C(=O)N[C@@H](C)C(=O)NCC(=O)NCC(N)=O)C(C)C)C(=O)O)C(=O)O
B1 was tested. Which “hGLP-1R EC50 (pM)” value [1] did it give?
Its value is 3.42 pM.

What about the “hGluc-R EC50 (pM)” value [2] of the same binder?
The value was 73.7 pM.

Which “hGLP-1R EC50 (pM)” value [1] does the source give for H[Aib]HGS[αMeF]TSDVSK[αMeF]LDSK([AEEA-AEEA-γGlu-C18 diacid])AAQDFVQ[Aib]IANT-NH2 [Peptide 11] here?
The value was 157 pM.

What about the “hGluc-R EC50 (pM)” value [2] of the same binder?
Its value is 118 pM.

B2: Peptide 58 (peptide)
peptide: HSQGS[αMeF]TSDVSK[Dip]LDSK([PEG12-γGlu-γGlu-Stearoyl])AAQD[αMeF]VE[Aib]IINT-NH2
modifications: N-terminus assumed
SMILES: CCCCCCCCCCCCCCCCCC(=O)N[C@@H](CCC(=O)N[C@@H](CCC(=O)NCCOCCOCCOCCOCCOCCOCCOCCOCCOCCOCCOCCOCCC(=O)NCCCC[C@H](NC(=O)[C@H](CO)NC(=O)[C@H](CC(=O)O)NC(=O)[C@H](CC(C)C)NC(=O)[C@@H](NC(=O)[C@H](CCCCN)NC(=O)[C@H](CO)NC(=O)[C@@H](NC(=O)[C@H](CC(=O)O)NC(=O)[C@H](CO)NC(=O)[C@@H](NC(=O)[C@](C)(Cc1ccccc1)NC(=O)[C@H](CO)NC(=O)CNC(=O)[C@H](CCC(N)=O)NC(=O)[C@H](CO)NC(=O)[C@@H](N)Cc1c[nH]cn1)[C@@H](C)O)C(C)C)C(c1ccccc1)c1ccccc1)C(=O)N[C@@H](C)C(=O)N[C@@H](C)C(=O)N[C@@H](CCC(N)=O)C(=O)N[C@@H](CC(=O)O)C(=O)N[C@@](C)(Cc1ccccc1)C(=O)N[C@H](C(=O)N[C@@H](CCC(=O)O)C(=O)NC(C)(C)C(=O)N[C@H](C(=O)N[C@H](C(=O)N[C@@H](CC(N)=O)C(=O)N[C@H](C(N)=O)[C@@H](C)O)[C@@H](C)CC)[C@@H](C)CC)C(C)C)C(=O)O)C(=O)O
With B2 as the binder, how does the “hGLP-1R EC50 (pM)” value [1] read?
The value was 3.9 pM.

And the “hGluc-R EC50 (pM)” value [2]?
Its value is 11.3 pM.

B3: Peptide 57 (peptide)
peptide: HSQGS[αMeF]TSDVSK[Dip]LDSK([PEG8-γGlu-γGlu-Stearoyl])AAQD[αMeF]VE[Aib]IINT-NH2
modifications: N-terminus assumed
SMILES: CCCCCCCCCCCCCCCCCC(=O)N[C@@H](CCC(=O)N[C@@H](CCC(=O)NCCOCCOCCOCCOCCOCCOCCOCCOCCC(=O)NCCCC[C@H](NC(=O)[C@H](CO)NC(=O)[C@H](CC(=O)O)NC(=O)[C@H](CC(C)C)NC(=O)[C@@H](NC(=O)[C@H](CCCCN)NC(=O)[C@H](CO)NC(=O)[C@@H](NC(=O)[C@H](CC(=O)O)NC(=O)[C@H](CO)NC(=O)[C@@H](NC(=O)[C@](C)(Cc1ccccc1)NC(=O)[C@H](CO)NC(=O)CNC(=O)[C@H](CCC(N)=O)NC(=O)[C@H](CO)NC(=O)[C@@H](N)Cc1c[nH]cn1)[C@@H](C)O)C(C)C)C(c1ccccc1)c1ccccc1)C(=O)N[C@@H](C)C(=O)N[C@@H](C)C(=O)N[C@@H](CCC(N)=O)C(=O)N[C@@H](CC(=O)O)C(=O)N[C@@](C)(Cc1ccccc1)C(=O)N[C@H](C(=O)N[C@@H](CCC(=O)O)C(=O)NC(C)(C)C(=O)N[C@H](C(=O)N[C@H](C(=O)N[C@@H](CC(N)=O)C(=O)N[C@H](C(N)=O)[C@@H](C)O)[C@@H](C)CC)[C@@H](C)CC)C(C)C)C(=O)O)C(=O)O
Which “hGLP-1R EC50 (pM)” value [1] does the source give for B3 here?
The value was 9.09 pM.

What about the “hGluc-R EC50 (pM)” value [2] of the same binder?
Its value is 16.9 pM.

Which results are given for HSQGS[αMeF]TSDVSK[αMeF]LDSK([(PEG)2-(PEG)2-γGlu-γGlu-Palmitoyl])AAQD[αMeF]VQ[Aib]LEAGG-NH2 [Peptide 79]?
hGLP-1R EC50 (pM) [1]: 1.73 pM; hGluc-R EC50 (pM) [2]: 10.7 pM

HSQGS[αMeF]TSDVSK[αMeF]LDSK([(PEG)2-(PEG)2-γGlu-γGlu-Heptadecanoyl])AAQD[αMeF]VQ[Aib]IAN-NH2 [Peptide 88] was tested. Which “hGLP-1R EC50 (pM)” value [1] did it give?
The value was 1.04 pM.

And the “hGluc-R EC50 (pM)” value [2]?
The value was 6.47 pM.

How did the “hGLP-1R EC50 (pM)” value [1] turn out when HSQGS[αMeF]TSDVSK[Dip]LDSK([(PEG)2-(PEG)2-γGlu-γGlu-Myristyl])AAQD[αMeF]VE[Aib]IINT-NH2 [Peptide 63] was run?
Its value is 3.14 pM.

And the “hGluc-R EC50 (pM)” value [2]?
Its value is 2.49 pM.

B4: Peptide 7 (peptide)
peptide: H[Aib]HGS[αMeF]TSDVSK[αMeF]LDSK([γGlu-C18 diacid])AAQD[αMeF]VEWIANT-NH2
modifications: N-terminus assumed
SMILES: CC[C@H](C)[C@H](NC(=O)[C@H](Cc1c[nH]c2ccccc12)NC(=O)[C@H](CCC(=O)O)NC(=O)[C@@H](NC(=O)[C@](C)(Cc1ccccc1)NC(=O)[C@H](CC(=O)O)NC(=O)[C@H](CCC(N)=O)NC(=O)[C@H](C)NC(=O)[C@H](C)NC(=O)[C@H](CCCCNC(=O)CC[C@H](NC(=O)CCCCCCCCCCCCCCCCC(=O)O)C(=O)O)NC(=O)[C@H](CO)NC(=O)[C@H](CC(=O)O)NC(=O)[C@H](CC(C)C)NC(=O)[C@](C)(Cc1ccccc1)NC(=O)[C@H](CCCCN)NC(=O)[C@H](CO)NC(=O)[C@@H](NC(=O)[C@H](CC(=O)O)NC(=O)[C@H](CO)NC(=O)[C@@H](NC(=O)[C@](C)(Cc1ccccc1)NC(=O)[C@H](CO)NC(=O)CNC(=O)[C@H](Cc1c[nH]cn1)NC(=O)C(C)(C)NC(=O)[C@@H](N)Cc1c[nH]cn1)[C@@H](C)O)C(C)C)C(C)C)C(=O)N[C@@H](C)C(=O)N[C@@H](CC(N)=O)C(=O)N[C@H](C(N)=O)[C@@H](C)O
What does the source list for B4?
hGLP-1R EC50 (pM) [1]: 84.6 pM; hGluc-R EC50 (pM) [2]: 30.7 pM

Which results are given for HSQGS[αMeF]TSDVSK[Aib]LDSK([(PEG)2″-(PEG)2″-γGlu-γGlu-Stearyl])AAQD[αMeF]VQ[Aib]IAN-NH2 [Peptide 100]?
hGLP-1R EC50 (pM) [1]: 0.258 pM; hGluc-R EC50 (pM) [2]: 40.5 pM

What does the source list for HSQGS[αMeF]TSDVSK[Dip]LDSK([(PEG)2-γGlu-(PEG)2-γGlu-Stearoyl])AAQD[αMeF]VE[Aib]IINT-NH2 [Peptide 61]?
hGLP-1R EC50 (pM) [1]: 4.12 pM; hGluc-R EC50 (pM) [2]: 9.55 pM

For HSQGS[αMeF]TSDVSK[Dip]LDSKAAQD[αMeF]VE[Aib]IINT-NH2 (not fully specified (residue 17)) [Peptide 65], which “hGLP-1R EC50 (pM)” value [1] is on record?
Its value is 1230 pM.

What about the “hGluc-R EC50 (pM)” value [2] of the same binder?
The value was 2060 pM.

H[Aib]QGS[αMeF]TSDVSK[Dip]LDSK([(PEG)2-(PEG)2-γGlu-Palmitoyl])AAQD[αMeF]VQ[Aib]IAN-NH2 [Peptide 67] was tested. Which “hGLP-1R EC50 (pM)” value [1] did it give?
The value was 2.43 pM.

What about the “hGluc-R EC50 (pM)” value [2] of the same binder?
Its value is 9.49 pM.

Which “hGLP-1R EC50 (pM)” value [1] does the source give for HSQGS[αMeF]TSDVSK[αMeF]LDSKAAQD[αMeF]VQ[Aib]LEAGG-NH2 (not fully specified (residue 17)) [Peptide 80] here?
The value was 1.03 pM.

And the “hGluc-R EC50 (pM)” value [2]?
The value was 9.18 pM.

For HSQGS[αMeF]TSDVSK[Dip]LDSK([γGlu-(PEG)2-γGlu-(PEG)2-Stearoyl])AAQD[αMeF]VE[Aib]IINT-NH2 [Peptide 60], which “hGLP-1R EC50 (pM)” value [1] is on record?
The value was 5.16 pM.

What about the “hGluc-R EC50 (pM)” value [2] of the same binder?
The value was 21.1 pM.

For HSQGS[αMeF]TSDVSK[Dip]LDSK([(PEG)2-(PEG)2-γGlu-γGlu-Dodecyl])AAQD[αMeF]VE[Aib]IINT-NH2 [Peptide 62], which “hGLP-1R EC50 (pM)” value [1] is on record?
Its value is 10.1 pM.

What about the “hGluc-R EC50 (pM)” value [2] of the same binder?
The value was 15.2 pM.

For HSQGS[αMeF]TSDVSK[αMeF]LDSK([(PEG)2-(PEG)2-γGlu-γGlu-Palmitoyl])AAQD[αMeF]VQ[Aib]IAN-NH2 [Peptide 87], which “hGLP-1R EC50 (pM)” value [1] is on record?
Its value is 1.29 pM.

And the “hGluc-R EC50 (pM)” value [2]?
The value was 8.46 pM.

What does the source list for HSQGS[αMeF]TSDVSK[Dip]LDSK([(PEG)2-(PEG)2-γGlu-γGlu-Palmitoyl])AAQD[αMeF]VE[Aib]IINT-NH2 [Peptide 64]?
hGLP-1R EC50 (pM) [1]: 2.57 pM; hGluc-R EC50 (pM) [2]: 3.06 pM
